Literature values, collected in paper PMC6151437, “Antibacterial Synthetic Peptides Derived from Bovine Lactoferricin Exhibit Cytotoxic Effect against MDA-MB-468 and MDA-MB-231 Breast Cancer Cell Lines” (Molecules : A Journal of Synthetic Chemistry and Natural …, 2017).

Tested on: HT-29 cells
Parameters: method as in PMID 24140317
Conditions: maximum effects at 12 h of treatment

B1: BLF: Bovine lactoferrin, a milk protein (protein, UniProt P24627 20-708, looked up)
Lactotransferrin: APRKNVRWCTISQPEWFKCRRWQWRMKKLGAPSITCVRRAFALECIRAIAEKKADAVTLDGGMVFEAGRDPYKLRPVAAEIYGTKESPQTHYYAVAVVKKGSNFQLDQLQGRKSCHTGLGRSAGWIIPMGILRPYLSWTESLEPLQGAVAKFFSASCVPCIDRQAYPNLCQLCKGEGENQCACSSREPYFGYSGAFKCLQDGAGDVAFVKETTVFENLPEKADRDQYELLCLNNSRAPVDAFKECHLAQVPSHAVVARSVDGKEDLIWKLLSKAQEKFGKNKSRSFQLFGSPPGQRDLLFKDSALGFLRIPSKVDSALYLGSRYLTTLKNLRETAEEVKARYTRVVWCAVGPEEQKKCQQWSQQSGQNVTCATASTTDDCIVLVLKGEADALNLDGGYIYTAGKCGLVPVLAENRKSSKHSSLDCVLRPTEGYLAVAVVKKANEGLTWNSLKDKKSCHTAVDRTAGWNIPMGLIVNQTGSCAFDEFFSQSCAPGADPKSRLCALCAGDDQGLDKCVPNSKEKYYGYTGAFRCLAEDVGDVAFVKNDTVWENTNGESTADWAKNLNREDFRLLCLDGTRKPVTEAQSCHLAVAPNHAVVSRSDRAAHVKQVLLHQQALFGKNGKNCPDKFCLFKSETKNLLFNDNTECLAKLGGRPTYEEYLGTEYVTAIANLKKCSTSPLLEACAFLTR
optimal concentration for cytotoxic activity and apoptosis: 800 µg/mL
